In PMC7948450:

Target: ancestral flavin-containing monooxygenase 1 (AncFMO1), reconstructed mammalian ancestor of FMO1 (reconstructed mammalian ancestor)
Assay: crystal structure; AncFMO1 12.5 mg/ml with 1.0 mM NADP+ in storage buffer with 0.03% DDM; sitting drop, 20 °C, 100 mM Hepes pH 7.5, PEG 4000 10%, glycerol 20%; 3.0 Å; asymmetric unit of two dimers

Substance: ancestral flavin-containing monooxygenase 1 (AncFMO1), reconstructed mammalian ancestor of FMO1 (enzyme)
- stoichiometry N: 2
